# According to US20240026343A1, “METHOD FOR SCREENING DIMERIZED CYCLIC PEPTIDE” (AJINOMOTO CO., INC., priority 2021, published 2024):
# B1: EMP-Jun-cys-N11-SecM-GS3: EMP-leucine zipper fusion for ribosome display, SEQ ID NO: 87 (protein)
# chain: MAETGGLYACHMGPMTWVCQPLRGAAPAAPAPAAGGRIARLEEKVKTLKAQNSELASTANMLREQVAQLKQKVMNGCGGKDHLIHNHHKHEHAHAEHLFSTPVWISQAQGIRAGGSGSGS
# modifications: EMP-Jun-cys-N11-SecM-GS3; DISULFID 10..19 Disulfide bridge between Cys-10 and Cys-19
# B2: aMD4dY-Jun-cys-N11-SecM-GS3: c-Met binding cyclic peptide-leucine zipper fusion for ribosome display, SEQ ID NO: 71 (protein)
# chain: MAETCRQFNRRTHEVWNLDCGAAPAAPAPAAGGRIARLEEKVKTLKAQNSELASTANMLREQVAQLKQKVMNGCGGKDHLIHNHHKHEHAHAEHLFSTPVWISQAQGIRAGGSGSGS
# modifications: aMD4dY-Jun-cys-N11-SecM-GS3; DISULFID 5..20 Disulfide bridge between Cys-5 and Cys-20
# Tests used:
# [1] = target: T1, Recombinant Human Erythropoietin R Fc Chimera Protein (Homo sapiens, UniProt P19235); assay: Ribosome display enrichment on immobilized EPO receptor (Example 5); assay type: binding; details: starting DNA mix 1:50:50 (EMP:aMD4dY:TPO fusions); one round; FIGS. 17, 18
# T1 construct: purchased R&D systems 963-ER-50
# T1 sequence (P19235 with tags, fused parts or gaps limits assumed): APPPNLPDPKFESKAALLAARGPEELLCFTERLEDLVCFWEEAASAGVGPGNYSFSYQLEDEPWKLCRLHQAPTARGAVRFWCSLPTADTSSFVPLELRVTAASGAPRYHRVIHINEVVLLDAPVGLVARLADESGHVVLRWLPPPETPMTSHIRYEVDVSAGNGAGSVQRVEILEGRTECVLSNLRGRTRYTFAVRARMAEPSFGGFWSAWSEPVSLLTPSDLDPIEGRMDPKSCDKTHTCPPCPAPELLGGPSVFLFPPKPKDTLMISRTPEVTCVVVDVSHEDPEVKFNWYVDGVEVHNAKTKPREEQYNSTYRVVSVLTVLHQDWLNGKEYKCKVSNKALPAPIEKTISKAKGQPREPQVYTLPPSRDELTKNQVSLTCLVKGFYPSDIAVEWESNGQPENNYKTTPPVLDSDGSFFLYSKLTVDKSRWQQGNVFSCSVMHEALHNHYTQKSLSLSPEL
# Procedure: The DNA sequence of EMP-Jun-cys-N11-SecM-GS3 was prepared by PCR. Two types of DNA sequences, aMD4dY-Jun-cys-N11-SecM-GS3 and TPO-Jun-cys-N11-SecM-GS3, prepared in Example 4 were used. A DNA mix was prepared by mixing DNAs, EMP-Jun-cys-N11-SecM-GS3, aMD4dY-Jun-cys-N11-SecM-GS3, and TPO-Jun-cys-N11-SecM-GS3, at a ratio of 1:50:50.
# (§1) DNA transcription was carried out using T7 RNA polymerase. T7 RNA polymerase (Takara Bio, 2540A) and rNTPs (Promega, E6000) as well were used for transcription. 11 μL of ultrapure water, 2 μL of 10×T7 RNA polymerase buffer, 2 μL of 50 mM DTT, 2 μL of 25 mM rNTPs, 1 μL of T7 RNA polymerase, and 1 μL of DNA mix were mixed and reacted in a constant temperature bath at 37° C. for 6 hours. A 50 mM EDTA solution was then added. It was purified with RNA Clean & Concentrator 5 (ZYMO […], R1015) and made into a 2 μM mRNA mix.
# PURExpress ΔRF1,2,3 kit was used for translation expression of the prepared library. 2 μL of solution A, 1.5 μL of solution B, 1 μL of mRNA mix, and 0.5 μL of ultrapure water were mixed and cultured in a 37° C. constant temperature bath for 2 hours. […]
# Three types of DNAs, EMP-Jun-cys-N11-SecM-GS3, aMD4dY-Jun-cys-N11-SecM-GS3, and TPO-Jun-cys-N11-SecM-GS3, along with DNA mix and DNA mix2 were evaluated with 2100 Bioanalyzer (Agilent technologies). […]
# HGF-Erk-SRE pathway = assay: SRE luciferase reporter assay of cell-free translation products from ribosome display DNAs (Example 4); assay type: cell-based; details: HEK293E cells with SRE reporter; cell-free translation product at 25- to 625-fold dilution; HGF comparator; FIG. 16
# Procedure: For cell-free translation, to 20 ng of each DNA, 2.5 μL of Solution I, 0.25 μL of Solution II, 0.5 μL of Solution III, and 1.75 μL of water were added, and the mixture was incubated at 37° C. for 6 hours to carry out the translation reaction.
# Reporter assays were carried out as follows. To 25 μL of Opti-MEM medium (Thermo Fisher Scientific), 0.6 μL of Attractene Transfection Reagent (QIAGEN) was added and incubated at room temperature for 5 minutes. To the above mixed solution, a mixed solution of 25 μL of Opti-MEM and 1 μL of SRE reporter vector (QIAGEN) was added and incubated at room temperature for 20 minutes. This mixed solution was added to a 96-well plate, HEK293E cells were seeded thereon at 40,000 cells/well, and incubated overnight at 37° C. in a 5% CO2 incubator. After transfection, all the culture supernatant was removed, and 100 μL of Opti-MEM medium (evaluation basal medium), containing 0.5% FBS (Thermo Fisher Scientific), 1% non-essential amino acid solution (Thermo Fisher Scientific), and penicillin-streptomycin (Nacalai Tesque), was added thereto, which was cultured at 37° C. for 4 hours to starve the cells.
# To the evaluation basal medium, 0 to 100 ng/mL HGF was added, or the above cell-free expression reaction solution was added at a 25- to 625-fold dilution with respect to the medium, and 100 μL of the evaluation basal medium was added to the cells. The cells were stimulated by culturing overnight at 37° C. in a 5% CO2 incubator.
# Dual-Luciferase Reporter Assay System (Promega) was used for signal intensity detection. […] Activation of the HGF-Erk-SRE pathway was quantified by detecting Firefly luciferase luminescence from cell lysates with a plate reader. Subsequently, 50 μL of Glo & Stop reagent solution was added, and after 10 minutes, luminescence of Renilla luciferase, an internal standard, was detected to quantify the cell count. The signal activity of each sample was quantified as SRE activity=(luminescence intensity of Firefly luciferase)/(luminescence intensity of Renilla luciferase). […]
# [2] = target: T2, Recombinant Human HGFR/c-MET Fc Chimera Protein (Homo sapiens, UniProt P08581); assay: Ribosome display enrichment on immobilized c-Met (Example 4); assay type: binding; details: starting DNA mix 1:50:50 (aMD4dY:TPO:EMP′ fusions); one round; FIGS. 15, 16
# T2 construct: purchased R&D systems 8614-MT-100
# T2 sequence (P08581 with tags, fused parts or gaps limits assumed): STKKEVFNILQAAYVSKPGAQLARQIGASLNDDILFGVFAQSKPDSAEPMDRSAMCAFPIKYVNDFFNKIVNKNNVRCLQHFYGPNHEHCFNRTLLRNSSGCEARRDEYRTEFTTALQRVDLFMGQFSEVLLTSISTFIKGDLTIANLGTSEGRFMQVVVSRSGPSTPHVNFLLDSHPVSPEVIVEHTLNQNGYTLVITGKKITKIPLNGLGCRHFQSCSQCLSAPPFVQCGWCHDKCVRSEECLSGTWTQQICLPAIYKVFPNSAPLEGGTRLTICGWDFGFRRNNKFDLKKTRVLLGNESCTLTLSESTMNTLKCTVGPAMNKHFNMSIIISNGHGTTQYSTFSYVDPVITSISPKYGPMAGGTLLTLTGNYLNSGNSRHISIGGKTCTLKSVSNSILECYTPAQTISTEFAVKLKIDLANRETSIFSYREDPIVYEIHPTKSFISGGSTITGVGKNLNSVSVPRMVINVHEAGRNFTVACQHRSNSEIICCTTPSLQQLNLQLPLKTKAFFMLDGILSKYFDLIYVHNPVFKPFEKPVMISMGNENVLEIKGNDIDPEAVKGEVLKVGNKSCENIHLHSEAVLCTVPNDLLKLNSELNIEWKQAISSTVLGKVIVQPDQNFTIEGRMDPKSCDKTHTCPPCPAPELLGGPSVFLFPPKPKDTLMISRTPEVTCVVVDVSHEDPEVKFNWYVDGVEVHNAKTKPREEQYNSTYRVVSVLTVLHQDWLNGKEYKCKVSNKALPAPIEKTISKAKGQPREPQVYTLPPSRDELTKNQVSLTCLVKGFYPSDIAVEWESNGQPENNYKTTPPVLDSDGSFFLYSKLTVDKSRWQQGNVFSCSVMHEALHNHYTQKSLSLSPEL
# T2 sequence (P08581 25-307 limits assumed, change not shown): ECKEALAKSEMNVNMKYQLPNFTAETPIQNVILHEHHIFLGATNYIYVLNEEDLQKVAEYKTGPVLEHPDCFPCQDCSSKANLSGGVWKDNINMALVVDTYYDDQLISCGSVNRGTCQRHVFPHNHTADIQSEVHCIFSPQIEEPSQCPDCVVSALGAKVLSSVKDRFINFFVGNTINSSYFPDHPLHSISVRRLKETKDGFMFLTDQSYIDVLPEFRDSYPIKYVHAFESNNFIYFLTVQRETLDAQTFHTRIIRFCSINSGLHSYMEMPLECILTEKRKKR
# Procedure: as §1, with “E6000)” for “E6000) as well”
# PURExpress ΔRF1,2,3 kit was used for translation expression of the prepared library. 2 μL of solution A, 1.5 μL of solution B, 1 μL of mRNA mix, and 0.5 μL of ultrapure water were mixed and cultured in a 37° C. constant temperature bath for 2 hours. After the reaction, the reaction vessel was placed on ice, and 20 μL of ice-cold 1×TBSM-T buffer (50 mM Tris-HCl, 150 mM NaCl, 50 mM MgCl2, 0.05% Tween 20) was added to the formed ribosome-cyclic peptide-leucine zipper fusion-mRNA complex. This complex reaction solution was used in (4-7) below.
# Immobilization of target molecules to magnetic beads was carried out. […]
Molecule,enrichment in DNA mix2 after ribosome display against EPO receptor [1],relative SRE reporter activity (relative receptor activity) (HGF-Erk-SRE pathway),enrichment in DNA mix2 after ribosome display against c-Met [2]
B1,enriched,–,–
B2,–,showed activity,enriched
